Data on 69 sequences can be found in the domain aggregation screens of Martell et al. (2025).

This series in a line: soluble fraction after stress (log2 fold change); higher = more stays soluble; pooled small domains, quantitative proteomics. Particulars: stress: 50 degC. Summed up:
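After stress at 50°C, the amount of each protein still soluble was measured. This was done on pooled custom libraries of small protein domains, using high-throughput quantitative proteomics. The figure given is a base-two log fold change and stands for aggregation propensity, with higher values meaning more protein stays in solution.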
With “HMNVYEVKFGDTLDEIIKTYLFDIPVKKSILRQAVILANPHAFRRNNPHWMYSDRQLKLPELQDIRRAIF”, the “soluble fraction (log2)” value is -0.276.

Turning to “HMNREIVVYITGAVDNPGLYRLPLDSRLDDVLKLAVLSTNADREVLNPAQKLKDGQKIVVPYIVE”, the “soluble fraction (log2)” value is -0.111.

For the sequence “HMDPRTSSLTPQERKVLELVGGGLTNRQIAAEMFLAEKTVKNYVSSLLAKLGFERRTQAAVFIASPAF”, the “soluble fraction (log2)” value is -0.541.

Consider “HMGSQELIQLGERIRQKRKDSHLTQETFAEKAGISVNTVSRIEGGQAAMSIEIFAKLVEILDADANELLG”, for which the “soluble fraction (log2)” value is -1.14.

Take “HMKGSIMIETILKELKKNNKGFNFLLEKFDISEDELMKIINDLIHDKKVFLNSNNKYEIVSD”: the “soluble fraction (log2)” value is -0.238.

For “HMNDTLQEYFEALERLKSNNPINVPKNTKINNDSVALEAGRKRGSIKKSREIFAELIEAINNAS”, the “soluble fraction (log2)” value was -0.0859.

Take “HMGVQKGKDNALAVQQWIAERDATGDFGEYERRGIINRSALFDELGIPRSSMGSNDQIRQMIEAADVRWF”: the “soluble fraction (log2)” value was -0.189.

For “HMAESSPYTVRPGDTLWKILAQTQNARYNDFPYLYRKFRELNPNITDLNHIVSGQKIIVPHIPG”, the “soluble fraction (log2)” value worked out at 0.0168.

Take “HMSTSRAEIIAFLKSNPSSEYKHELETKLDEMDWAEAVKGNSEESFLAYKQRQPNGTHNGEADEKLKVLLV”: the “soluble fraction (log2)” value worked out at 0.191.

On to “HMENLQLQQLVKGLPEKMQEIVILRFSQELTMREIADIVNLPMRTVQSQLRLALKILKKEMG”, for which the “soluble fraction (log2)” value was -0.447.

Take “HMLNERQKKIIKILKDNKNWMTGKELSEFLNVSDRTIRSDIEYINRYNNALIESNVKNGYHLNFE”: the “soluble fraction (log2)” value came out at 0.12.

With “HMGSTATVIASRLNMRASASTTGALLTKIPNGATVTVLGTTGAWSHIRYGSYTGYVMSQYLRING”, the “soluble fraction (log2)” value is -0.203.

For “HMNLKDINLNVRHYKIIDFVREHGYASIETLTRQFGVSAQTVRRDIIYLDNQAVLKRHHGGVGTLPG”, the “soluble fraction (log2)” value was -1.99.

In the case of “HMDVNPETLSYYIERADISLDELRTSVKGIDLFLTGEKQPTFNQISNIAKKLNIPTGLLLINKPIEI”, the “soluble fraction (log2)” value is -0.375.

With “HMSGTYIVTVQANTLDIYKSMTSNDTIGKANKGDVFQILEDMGGGYAKVSYNDVEGYISIKDGDTSIDEM”, the “soluble fraction (log2)” value was -0.23.

Regarding “HMGIERTNADTSFSVNVYGKELIITSNKPLVVNIYAIDGTLVRTEQVTIGVNTVSGLPSGIYVVGQQKVVI”, the “soluble fraction (log2)” value was 0.297.

Regarding “HMPTMTDIPIKIIRSRRRTLAIEVREGGEVIVRAPLYSRKAEIDAFVKAHENWIITKYNLMITKQN”, the “soluble fraction (log2)” value is -1.74.

Regarding “HMNAIYKFVLGMIGKRSGVVTTLPSKKQVEFQANMLAEKFMQNGIDPNALKSPEQVKNVLANIDQ”, the “soluble fraction (log2)” value was -0.737.

As to “HMEIETPEIRAIHDLLELLANKAKKPEQEQFVQAHPEVQWAKVEANKNGTFAVGKVKAYLKTLQA”, the “soluble fraction (log2)” value was -0.308.

For “HMPKMDGLTVMEQVNQDHFVNKRPYFIVITAVGQEKITEDAFNKGANYYVMKPFNNNMLLERIKSVRK”, the “soluble fraction (log2)” value was determined as 0.294.

With “HMITMADKIDTALSEMAANNEKINVSQVAKRLGISNSAIYKFNPEKIPDIQTAQKRQKHKAEAIAVGTEN”, the “soluble fraction (log2)” value was found to be 0.215.

As to “HMKKVTMQDIANILNISRVTVWKVLNNQPGVSKQLRDQILLTAKETGYLKPGQEAEAYLEENNIYFEG”, the “soluble fraction (log2)” value was determined as 0.176.

Turning to “HMELQYSQEIEEAQKILENLGLYRGEIDGINGINTKSAIREFQRKSGLVVDGILGPNTTNALSKGSDAYIT”, the “soluble fraction (log2)” value is 0.094.

On to “HMSVERIEPPLPLIDTLLALRDALERPLSREENAFLSRRFAGGATRAQIDALAAQFRGAAAAESKV”, for which the “soluble fraction (log2)” value turned out to be 0.104.

For the sequence “HMSDSAFAEMRRELEALRNSNAEYERALSNFFPEAEDKALAAEAFYQNREYDELVAEREEANVIDGLKR”, the “soluble fraction (log2)” value is -0.094.

As for “HMKFGEQIKERRQELDLTQAEVAEKLFVTRQAVSNWEHNKTYPDLNMLVKISNVYQISLDSLLR”, the “soluble fraction (log2)” value is -1.23.

Consider “HMTSSKISFIDPVNGGKVSVSLENSTLEKLQNRFGVNSVVRNEAGDVELKDKAQEFVAGWFADIAYTRG”, for which the “soluble fraction (log2)” value was found to be 0.0813.

As to “HMISDEELLVSTKKEIMSLATVLTKTDKKDDAIAIMKEYDPAANPNRIKDVNKAKELLERLQKLG”, the “soluble fraction (log2)” value was -0.125.

Consider “HMLQIGDEEFIENIVKQVIDENQKAVDDYKKGKEKVMAFLIGQVMKKTKGKVNSEIVEKTIKKL”, for which the “soluble fraction (log2)” value is -0.262.

Regarding “HMTSFDVMLKSAGANKLAVVKLVKELTGLGLKEAKDIVDAAPSKVKEGVSKEEAEELQKQLTGAGAEVEL”, the “soluble fraction (log2)” value was 0.0299.

Take “HMTSESWAEKSRSLAAAGLIVMGRDAQLKIEGLTNLDPLIEAATASSTRLLTGQTIDELLTIVP”: the “soluble fraction (log2)” value is -0.265.

Take “HMLKTADAIASVLLTRIQAGEFSAGRLPAERALSEAFSTTRITLREALGKLEAQGMIYRELRRGWFIA”: the “soluble fraction (log2)” value was -1.76.

For the sequence “HMAKRKYKSFKDVAEFAQKLGIKSSTEWWAYVRGHEIPSDIPKDPSTYYKKEWTTWGDFLGTGYVSSA”, the “soluble fraction (log2)” value was found to be 0.154.

In the case of “HMRVGADLTQRERELLALMAQGMSNQEIAKRLEIAVPTVKFHITNILDKLQVGNRTEAVIAALEHKLVP”, the “soluble fraction (log2)” value was -0.58.

For the sequence “HMRAVFEQLRIGQTLAGVVKAQEKGFSLVEIDGQTVAMRLPHPAAVGDTLRLRFAGHMPQAVFLLES”, the “soluble fraction (log2)” value was -0.561.

For the sequence “HMQMEDTDALLQVAKEVVAENQDTVEAYLGGREKAFASLIGAAMKKTRGKANPKVIRQLILDLIQ”, the “soluble fraction (log2)” value turned out to be 0.254.

For the sequence “HMQVSDEGAIQLLVQKAIEENPQAIEAFRGGKTSALGPVVGWVMKQSKGAANPTMVKTLLEKAI”, the “soluble fraction (log2)” value worked out at 0.293.

Regarding “HMGTVFTDIMTDIASGKFPNVFPDSLEAQIQKNVTMAPDKLSATLQYGDKSVILPTTKGKEAAEAAVKAA”, the “soluble fraction (log2)” value was -0.0555.

Consider “HMYESAMSDLHARIMSSDDPHGEIYKMLTQSGPEAKYIQDMYNETSIDRGLHPDDDFEDIIDAMVAELDD”, for which the “soluble fraction (log2)” value was -0.479.

“HMHNPSYDMSKDVDILVMKFRDYNNLTDDEARFLLDKAKDAYYNTGKEILSDNEYDTLEKSLGQE”: the “soluble fraction (log2)” value is 0.178.

“HMGSTVRIVVPAADIPAYKDIQPSDLEYREVPKDEISEDAVTDPQEVINKYSTSPLYAGWPINKNIIET”: the “soluble fraction (log2)” value is 0.0298.

Turning to “HMDGVYLKSLKQTEQHIHWSGYAQSNAWVSTLMRNLDASPWFESPLLIEIKAATINNSRSNEFDLNVRL”, the “soluble fraction (log2)” value was 0.0711.

Regarding “HMTNPPITTEARNLVVEQLKELNALHPEKARELADSYKKEFNVPKVIGHITEARHGEFLALAISKIDES”, the “soluble fraction (log2)” value is -0.144.

As for “HMSDEVNTDKAFRAIDSTLNRNVKGIAPRDHTLLRNTMITYFKSNDYIDYDTMIQSTLENYKPTELEQDKM”, the “soluble fraction (log2)” value amounted to 0.165.

For “HMDTQKYDLNDDGRFDVQDVTYLQIKIAGDGELTDNQKKIADYNNDGKIDVQDVTSAQMLIS”, the “soluble fraction (log2)” value is -0.0732.

Consider “HMGNQALSSVLSDIAGIGPVKTKELLRVYPDLDSLRQAPVEEVAKVKGIGRQLAQKIHDHFSSR”, for which the “soluble fraction (log2)” value worked out at 0.189.

Take “HMDFSSRLKDERKRLKLSQAQLGEAGGVSKDAQLNYENGSRSPSASYLELIAREGVDVQFLLTGKRS”: the “soluble fraction (log2)” value came out at 0.0732.

Regarding “HMYIDANTALLAKRIQAKNGFLPLSDKSTAEEIYAEFGISKKAFKKALGALYKERLVRIGDEGVVWV”, the “soluble fraction (log2)” value is -1.79.

“HMVTKTTYAYERLKREIMDGTLGQGEKLVVNAISQRYQVSPMPIREALLKLEQEGLVQSAPHRGAWVHK”: the “soluble fraction (log2)” value was -0.345.

For “HMNPSIALHDWLQSSEFKGSINLFAAALGMNPRTVEAWVYGRSTPSRRFWAKLYQITNLSRFRL”, the “soluble fraction (log2)” value is -0.836.

Take “HMLLQTAVISTDIVNMRAEPTTNSSVIRKLTKGSDITINQEKDGWYKISDDQGNSGWIVTWAAKPT”: the “soluble fraction (log2)” value was 0.0497.

In the case of “HMPKIPRLTLTETAGIMGVSQRALALAIQQGMYSWAQALPGRNKKRPIYFINAITFAKAQGIDLEEYK”, the “soluble fraction (log2)” value is -1.11.

As for “HMVGPAHIGLAVAKDQLPHWERHLTANGVEIEGRMRWDHGGESIYFRDPDAHLLELVTPGIWAN”, the “soluble fraction (log2)” value was -0.0453.

Turning to “HMGPDTVDRTRRFKWVDNEVVVNFGKNAGRTLRDLAENDPGFLRWIVRSDFSDEVRTIANDALMGKFPTRK”, the “soluble fraction (log2)” value amounted to 0.00109.

Regarding “HMGGREEAGTDIARLLGYINDIHGEELIAKLEYYQKMLGSENFAVLMSRLPDGQKKELREQNLYSEYV”, the “soluble fraction (log2)” value is -0.145.

As to “HMTKLSPKEKSILHIIGDNAGIKSGQIAKRLDIPSPTVKRILSDLVSQNLIEKFGTGPGTNYSI”, the “soluble fraction (log2)” value came out at 0.0531.

Consider “HMEPLVSKVFQVSYQKTADLVALIKSEDSKLLSARGTLISDERTSQIFVQDTPTRLERISMIVNGL”, for which the “soluble fraction (log2)” value was -0.883.

“HMNTVAKELATQATQAKKRAFLDAYAETGIIKRAAEIAGIERKSHYLWLEKDPEYVEAFKSAGEQ”: the “soluble fraction (log2)” value is 0.301.

Take “HMRSHLSANLQRLRHIAGLTQKDLALAANLPRATLASLEQGEANPRLDTLLAVASALQVGLDELIAAP”: the “soluble fraction (log2)” value is -0.866.

For the sequence “HMGIAERKEKQKLEIRNAILEASRKLIVEEGFEKVTMRKIADLIEYSPTTVYLYFKDKNEILFHLHQ”, the “soluble fraction (log2)” value was -1.37.

In the case of “HMEYTVNRLAQISGVSKRTLRYYDEIGLLRPERVNPNGYRIYGQMQVDLLQQILFYRELGLPLEEIREII”, the “soluble fraction (log2)” value was -0.467.

As for “HMALPQPDDDRQDTKKRILDMAEDLLLTRGFNAFSYQHISSELGMKNAAIHYHYPKKNDLGVAVIQRYRRR”, the “soluble fraction (log2)” value came to 0.151.

For the sequence “HMENSLLSESLAKIYIKTHRYERAYEILSRLSLAVPEKNAYFADQLRFLRKVMLAESFRKQHS”, the “soluble fraction (log2)” value is -0.00623.

In the case of “HMFVEEGSLKKITFDTYEFNITDNLKSLRVTYQGLLPNLFREGQGVVIEGILLEQNYIQANTVF”, the “soluble fraction (log2)” value was 0.22.

As to “HMGYPGLGSIGSKPLGDLLFQSKLFVKTKREFAEFKMANNNIVWGRRTQYLVRNYPLSVMEVFL”, the “soluble fraction (log2)” value was -0.0279.

On to “HMAEDGNMTFEEYAKRWLARQVRYAPSTLESYRRMLGRVYPFIGAIPINRLRPIALENLLAELRKRT”, for which the “soluble fraction (log2)” value is -0.48.

As for “HMVREVSYDQFLHFVEAKQVGMVYQDGESLMFTLKEDVEKEWGVTAYKTGLWPDANLTDRLLDAGVVFS”, the “soluble fraction (log2)” value is -0.715.

As for “HMLRTLSTSEFAEAIGISESSARRLADSGDLRIRRTKGGHRKIPAEEAIRYAREIQATVVRPDLLGLST”, the “soluble fraction (log2)” value was 0.0109.

Regarding “HMEDPLGDLIGRIAAATGRPVQDIVAEVHRVVTDHFDGNLRVEAAAVILARKYGVAFEDKLSALQRSV”, the “soluble fraction (log2)” value turned out to be 0.00767.
